Measurements as given in patent publication US20070009988A1.

Columns and labels:
gliadin 33mer … (wheat) = test: cell-based or functional assay
[1] = target: T1, gliadin 14mer PQPQLPYPQPQLPY
T1 chain: PQPQLPYPQPQLPY

[2] = target: T2, gliadin 33mer LQLQPFPQPQLPYPQPQLPYPQPQLPYPQPQPF
T2 chain: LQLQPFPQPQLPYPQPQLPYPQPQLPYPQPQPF

With Pronase the digestion of the peptide over 20 h, E/S=1/25 (gliadin 33mer … (wheat)) was < 40%.

B1: recombinant ruLAP2 (aminopeptidase II of Trichophyton rubrum) produced in P. pastoris (protein)
chain: RLVGQEPFGWPFKPMVTQDDLQNKIKLKDIMAGVEKLQSFSDAHPEKNRVFGGNGHKDTVEWIYNEIKATGYYDVKKQEQVHLWSHAEAALNANGKDLKASAMSYSPPASKIMAELVVAKNNGCNATDYPANTQGKIVLVERGVCSFGEKSAQAGDAKAAGAIVYNNVPGSLAGTLGGLDKRHVPTAGLSQEDGKNLATLVASGKIDVTMNVISLFENRTTWNVIAETKGGDHNNVIMLGAHSDSVDAGPGINDNGSGSIGIMTVAKALTNFKLNNAVRFAWWTAEEFGLLGSTFYVNSLDDRELHKVKLYLNFDMIGSPNFANQIYDGDGSAYNMTGPAGSAEIEYLFEKFFDDQGIPHQPTAFTGRSDYSAFIKRNVPAGGLFTGAEVVKTPEQVKLFGGEAGVAYDKNYHRKGDTVANINKGAIFLNTRAIAYAIAEYARSLKGFPTRPKTGKRDVNPQYSKMPGGGCGHHTVFM
B1 was tested, and the “mass loss after overnight digestion (ESI-MS), E/S 1:20 and 1:100” value (Gly-Ser-proNPY) was “incubation with ruLAP2 results in the cleavage of the two N-terminal residues Gly-Ser with a theoretical loss of 144.1 amu (found 144.2)”, the “digestion of the peptide, 37 C, 4 h, RP-HPLC and ESI-MS” value [1] was “the 14mer is not digested with ruLAP2 within 4 h. There is no change in the HPLC profile when compared with the control. In fact, digestion results only in the cleavage of the N-terminal Proline” and the “mass loss after overnight digestion (ESI-MS)” value (Ala-proNPY) was “the N-terminal alanine was almost totally removed (molecular mass loss of 71 amu) from proNPY”.

B2: microsomal leucine aminopeptidase from porcine kidney (Sigma) (protein)
chain: YAQEKNKNAEHVPQAPTSPTITTTAAITLDQSKPWNRYRLPTTLLPDSYNVTLRPYLTPNADGLYIFKGKSIVRLLCQEPTDVIIIHSKKLNYTTQGHMVVLRGVGDSQVPEIDRTELVELTEYLVVHLKGSLQPGHMYEMESEFQGELADDLAGFYRSEYMEGNVKKVLATTQMQSTDARKSFPCFDEPAMKATFNITLIHPNNLTALSNMPPKGSSTPLAEDPNWSVTEFETTPVMSTYLLAYIVSEFQSVNETAQNGVLIRIWARPNAIAEGHGMYALNVTGPILNFFANHYNTSYPLPKSDQIALPDFNAGAMENWGLVTYRENALLFDPQSSSISNKERVVTVIAHELAHQWFGNLVTLAWWNDLWLNEGFASYVEYLGADHAEPTWNLKDLIVPGDVYRVMAVDALASSHPLTTPAEEVNTPAQISEMFDSISYSKGASVIRMLSNFLTEDLFKEGLASYLHAFAYQNTTYLDLWEHLQKAVDAQTSIRLPDTVRAIMDRWTLQMGFPVITVDTKTGNISQKHFLLDSESNVTRSSAFDYLWIVPISSIKNGVMQDHYWLRDVSQAQNDLFKTASDDWVLLNVNVTGYFQVNYDEDNWRMIQHQLQTNLSVIPVINRAQVIYDSFNLATAHMVPVTLALDNTLFLNGEKEYMPWQAALSSLSYFSLMFDRSEVYGPMKKYLRKQVEPLFQHFETLTKNWTERPENLMDQYSEINAISTACSNGLPQCENLAKTLFDQWMSDPENNPIHPNLRSTIYCNAIAQGGQDQWDFAWGQLQQAQLVNEADKLRSALACSNEVWLLNRYLGYTLNPDLIRKQDATSTINSIASNVIGQPLAWDFVQSNWKKLFQDYGGGSFSFSNLIQGVTRRFSSEFELQQLEQFKKNNMDVGFGSGTRALEQALEKTKANIKWVKENKEVVLNWFIEHS
B2 was tested, and the “digestion of the peptide, RP-HPLC and ESI-MS” value [2] was “incubation with microsomal porcine kidney aminopeptidase results only in a partial deletion of N-terminal Leu and C-terminal Phe (due to a carboxypeptidasic contaminant)”.

B3: cytosolic leucine aminopeptidase from porcine kidney (Sigma) (protein)
chain: TKGLVLGIYSKEKEDDAPQFTSAGENFDKLVSGKLREILNISGPPLKAGKTRTFYGLHEDFSSVVVVGLGKKGAGVDDQENWHEGKENIRAAVAAGCRQIQDLEIPSVEVDPCGDAQAAAEGAVLGLYEYDELKQKKKVVVSAKLHGSGDQEAWQRGVLFASGQNLARHLMETPANEMTPTRFAEVIEKNLKSASSKTDVHIRPKSWIEEQEMGSFLSVAKGSEEPPVFLEIHYKGSPDASDPPLVFVGKGITFDSGGISIKASANMDLMRADMGGAATICSTIVSAAKLDLPINLVGLAPLCENMPSGKANKPGDVVRAKNGKTIQVDNTDAEGRLILADALCYAHTFNPKVIINAATLTGAMDIALGSGATGVFTNSSWLWNKLFEASIETGDRVWRMPLFEHYTKQIVDCQLADVNNIGKYRSAGACTAAAFLKEFVTHPKWAHLDIAGVMTNKDEVPYLRKGMAGRPTRTLIEFLLRFSQDSA
In the case of B3, the “digestion of the peptide, RP-HPLC” value [2] is reported as “Cytosolic porcine kidney aminopeptidase is totally inactive towards the 33mer”.
